Results: patent US20030224453A1, “Structural models for cytoplasmic domains of transmembrane receptors” (priority 1998, published 2003)

Assays:
filamin (ABP-280) [1] = target: T1, filamin (ABP-280) (Homo sapiens, UniProt P21333); assay: Binding of resin-bound cytoplasmic domain model proteins to purified filamin; set-up: Human uterus filamin (ABP-280) was prepared as a 1.5 mg/ml solution; from tissue; host or cells: human uterus; details: result in words
Procedure: (§1) Purified recombinant cytoplasmic domain proteins (500 μg) were dissolved in a mixture of 5 ml 20 mM Pipes, 50 mM NaCl, pH 6.8 and 1 ml 0.1 M sodium acetate, pH 3.5 and bound overnight to 80 μl of Ni^2+ saturated His-bind resin (Novagen). […] Resins were washed twice with 20 mM Pipes, 50 mM NaCl, pH 6.8, and stored at 4° C. with 0.1% sodium azide as suspensions with one volume of this buffer. Fifty microliters of such a suspension were added to 4.5 ml of cell lysates which had been diluted tenfold with buffer A containing 0.05% TRITON X-100, 3 mM MgCl2 and protease-inhibitors. After incubation overnight at 4° C., resins were washed five times with this buffer and finally heated in 50 μl of reducing sample buffer for SDS PAGE. Samples were separated on 4-20% SDS polyacrylamide gels (NOVEX) and either stained with Coomassie or transferred to Immobilon P membranes (Amersham Corp., Arlington Hts, Ill.). Membranes were blocked with TBS, 5% nonfat-mild powder and stained with streptavidin-peroxidase (VECTASTAIN) or specific antibodies. Bound peroxidase was detected with an enhanced chemiluminescence kit (Amersham).
Human uterus filamin (ABP-280) was prepared as a 1.5 mg/ml solution in 0.6 M KCl, 0.5 mM ATP, 0.5 mM DTT, 10 mM imidazole, pH 7.5. For binding assays performed as described in Example 5, this solution was diluted 1/12 with buffer A, 0.05% TRITON X-100, 3 mM MgCl2, 2 mg/ml BSA, protease-inhibitors (see Example 5), omitting the 50 mM NaCl (see Example 5), and resins with bound model proteins were added. Washing was performed in this buffer without BSA and with additional 50 mM KCl.
Talin was purified from human platelets in accordance with well known procedures with an additional purification step using chromatography on phosphocellulose and stored at 1 mg/ml in 10 mM NaCl, 50% glycerol. This solution was diluted to either 87 or 17 μg/ml talin with buffer A, 0.05% TRITON X-100, 3 mM MgCl2, 2 mg/ml BSA and protease inhibitors (see Example 5, including 0.1 mM E-64) and processed as indicated in the binding assays with cell lysates. […]
Target sequence in this assay (P21333 whole entry, the tested form may be a part): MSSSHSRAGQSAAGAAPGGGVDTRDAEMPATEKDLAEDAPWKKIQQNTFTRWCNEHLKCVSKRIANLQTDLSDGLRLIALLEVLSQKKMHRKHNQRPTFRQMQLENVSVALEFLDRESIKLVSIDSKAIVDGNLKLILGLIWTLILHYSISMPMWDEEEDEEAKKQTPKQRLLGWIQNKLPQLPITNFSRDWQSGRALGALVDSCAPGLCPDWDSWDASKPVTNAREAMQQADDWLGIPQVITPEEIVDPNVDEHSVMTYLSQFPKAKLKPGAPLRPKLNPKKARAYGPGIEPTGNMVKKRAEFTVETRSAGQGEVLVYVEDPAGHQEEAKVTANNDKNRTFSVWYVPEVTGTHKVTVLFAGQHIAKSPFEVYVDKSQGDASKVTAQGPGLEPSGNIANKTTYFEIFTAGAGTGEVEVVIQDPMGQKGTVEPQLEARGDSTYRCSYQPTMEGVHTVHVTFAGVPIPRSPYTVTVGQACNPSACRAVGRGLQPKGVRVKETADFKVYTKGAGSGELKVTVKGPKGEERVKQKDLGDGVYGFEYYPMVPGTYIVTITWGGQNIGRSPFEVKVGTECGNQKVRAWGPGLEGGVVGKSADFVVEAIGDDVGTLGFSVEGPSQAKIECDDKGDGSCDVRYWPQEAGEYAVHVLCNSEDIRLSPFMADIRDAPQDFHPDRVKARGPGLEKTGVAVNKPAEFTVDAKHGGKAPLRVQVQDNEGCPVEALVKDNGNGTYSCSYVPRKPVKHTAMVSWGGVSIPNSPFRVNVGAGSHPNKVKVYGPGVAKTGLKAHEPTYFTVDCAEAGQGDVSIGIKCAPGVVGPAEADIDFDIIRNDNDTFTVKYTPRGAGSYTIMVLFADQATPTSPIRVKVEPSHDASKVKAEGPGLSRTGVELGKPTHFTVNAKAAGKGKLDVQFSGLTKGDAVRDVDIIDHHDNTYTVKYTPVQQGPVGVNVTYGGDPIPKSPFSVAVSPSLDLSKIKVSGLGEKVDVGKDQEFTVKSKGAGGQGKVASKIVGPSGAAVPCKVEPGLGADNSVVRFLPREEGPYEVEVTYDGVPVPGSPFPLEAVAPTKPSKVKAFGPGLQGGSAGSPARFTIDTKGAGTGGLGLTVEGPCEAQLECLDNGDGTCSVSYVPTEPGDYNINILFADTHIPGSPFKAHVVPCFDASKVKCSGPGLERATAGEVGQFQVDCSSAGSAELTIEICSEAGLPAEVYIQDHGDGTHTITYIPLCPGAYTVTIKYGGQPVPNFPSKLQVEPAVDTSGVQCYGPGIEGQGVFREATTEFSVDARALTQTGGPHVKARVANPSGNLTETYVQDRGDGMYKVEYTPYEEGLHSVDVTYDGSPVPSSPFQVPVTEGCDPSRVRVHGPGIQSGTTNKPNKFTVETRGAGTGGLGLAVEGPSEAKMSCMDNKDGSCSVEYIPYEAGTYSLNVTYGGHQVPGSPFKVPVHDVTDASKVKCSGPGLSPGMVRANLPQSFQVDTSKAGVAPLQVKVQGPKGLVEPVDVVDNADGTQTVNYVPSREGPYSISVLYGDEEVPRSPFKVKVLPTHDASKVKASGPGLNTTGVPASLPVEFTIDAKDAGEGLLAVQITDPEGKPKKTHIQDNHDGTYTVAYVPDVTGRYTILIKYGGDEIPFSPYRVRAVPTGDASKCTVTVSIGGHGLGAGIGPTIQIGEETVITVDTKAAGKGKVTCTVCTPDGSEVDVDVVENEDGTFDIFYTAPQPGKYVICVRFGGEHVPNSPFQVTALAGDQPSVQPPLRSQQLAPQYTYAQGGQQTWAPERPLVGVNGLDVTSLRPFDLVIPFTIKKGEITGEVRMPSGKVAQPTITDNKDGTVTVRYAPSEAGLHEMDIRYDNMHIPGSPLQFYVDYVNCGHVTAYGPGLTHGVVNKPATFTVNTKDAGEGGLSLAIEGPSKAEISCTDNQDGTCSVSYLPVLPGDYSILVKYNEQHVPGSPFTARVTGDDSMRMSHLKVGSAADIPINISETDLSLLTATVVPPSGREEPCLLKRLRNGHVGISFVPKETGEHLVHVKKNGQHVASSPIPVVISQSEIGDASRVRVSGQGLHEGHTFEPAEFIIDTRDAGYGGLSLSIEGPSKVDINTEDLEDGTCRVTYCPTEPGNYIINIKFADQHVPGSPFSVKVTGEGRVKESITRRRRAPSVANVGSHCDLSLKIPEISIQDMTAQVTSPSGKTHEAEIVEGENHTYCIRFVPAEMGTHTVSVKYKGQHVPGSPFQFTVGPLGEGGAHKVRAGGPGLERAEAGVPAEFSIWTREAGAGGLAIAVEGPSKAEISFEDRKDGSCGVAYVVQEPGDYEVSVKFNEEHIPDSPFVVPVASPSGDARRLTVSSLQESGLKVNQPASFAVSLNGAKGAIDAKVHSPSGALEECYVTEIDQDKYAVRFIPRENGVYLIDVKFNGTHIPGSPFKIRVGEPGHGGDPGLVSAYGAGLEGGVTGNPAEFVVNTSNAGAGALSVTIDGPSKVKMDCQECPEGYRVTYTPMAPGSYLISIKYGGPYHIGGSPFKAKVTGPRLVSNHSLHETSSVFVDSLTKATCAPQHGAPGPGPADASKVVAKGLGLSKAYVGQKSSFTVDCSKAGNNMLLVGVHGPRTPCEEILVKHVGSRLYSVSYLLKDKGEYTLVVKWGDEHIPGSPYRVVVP

talin [2] = target: T2, talin (Homo sapiens, UniProt Q9Y490); assay: Binding of resin-bound cytoplasmic domain model proteins to purified talin; set-up: Talin was purified from human platelets in accordance with well known procedures; from tissue; host or cells: human platelets; details: result in words
T2 sequence (Q9Y490 whole entry, the tested form may be a part): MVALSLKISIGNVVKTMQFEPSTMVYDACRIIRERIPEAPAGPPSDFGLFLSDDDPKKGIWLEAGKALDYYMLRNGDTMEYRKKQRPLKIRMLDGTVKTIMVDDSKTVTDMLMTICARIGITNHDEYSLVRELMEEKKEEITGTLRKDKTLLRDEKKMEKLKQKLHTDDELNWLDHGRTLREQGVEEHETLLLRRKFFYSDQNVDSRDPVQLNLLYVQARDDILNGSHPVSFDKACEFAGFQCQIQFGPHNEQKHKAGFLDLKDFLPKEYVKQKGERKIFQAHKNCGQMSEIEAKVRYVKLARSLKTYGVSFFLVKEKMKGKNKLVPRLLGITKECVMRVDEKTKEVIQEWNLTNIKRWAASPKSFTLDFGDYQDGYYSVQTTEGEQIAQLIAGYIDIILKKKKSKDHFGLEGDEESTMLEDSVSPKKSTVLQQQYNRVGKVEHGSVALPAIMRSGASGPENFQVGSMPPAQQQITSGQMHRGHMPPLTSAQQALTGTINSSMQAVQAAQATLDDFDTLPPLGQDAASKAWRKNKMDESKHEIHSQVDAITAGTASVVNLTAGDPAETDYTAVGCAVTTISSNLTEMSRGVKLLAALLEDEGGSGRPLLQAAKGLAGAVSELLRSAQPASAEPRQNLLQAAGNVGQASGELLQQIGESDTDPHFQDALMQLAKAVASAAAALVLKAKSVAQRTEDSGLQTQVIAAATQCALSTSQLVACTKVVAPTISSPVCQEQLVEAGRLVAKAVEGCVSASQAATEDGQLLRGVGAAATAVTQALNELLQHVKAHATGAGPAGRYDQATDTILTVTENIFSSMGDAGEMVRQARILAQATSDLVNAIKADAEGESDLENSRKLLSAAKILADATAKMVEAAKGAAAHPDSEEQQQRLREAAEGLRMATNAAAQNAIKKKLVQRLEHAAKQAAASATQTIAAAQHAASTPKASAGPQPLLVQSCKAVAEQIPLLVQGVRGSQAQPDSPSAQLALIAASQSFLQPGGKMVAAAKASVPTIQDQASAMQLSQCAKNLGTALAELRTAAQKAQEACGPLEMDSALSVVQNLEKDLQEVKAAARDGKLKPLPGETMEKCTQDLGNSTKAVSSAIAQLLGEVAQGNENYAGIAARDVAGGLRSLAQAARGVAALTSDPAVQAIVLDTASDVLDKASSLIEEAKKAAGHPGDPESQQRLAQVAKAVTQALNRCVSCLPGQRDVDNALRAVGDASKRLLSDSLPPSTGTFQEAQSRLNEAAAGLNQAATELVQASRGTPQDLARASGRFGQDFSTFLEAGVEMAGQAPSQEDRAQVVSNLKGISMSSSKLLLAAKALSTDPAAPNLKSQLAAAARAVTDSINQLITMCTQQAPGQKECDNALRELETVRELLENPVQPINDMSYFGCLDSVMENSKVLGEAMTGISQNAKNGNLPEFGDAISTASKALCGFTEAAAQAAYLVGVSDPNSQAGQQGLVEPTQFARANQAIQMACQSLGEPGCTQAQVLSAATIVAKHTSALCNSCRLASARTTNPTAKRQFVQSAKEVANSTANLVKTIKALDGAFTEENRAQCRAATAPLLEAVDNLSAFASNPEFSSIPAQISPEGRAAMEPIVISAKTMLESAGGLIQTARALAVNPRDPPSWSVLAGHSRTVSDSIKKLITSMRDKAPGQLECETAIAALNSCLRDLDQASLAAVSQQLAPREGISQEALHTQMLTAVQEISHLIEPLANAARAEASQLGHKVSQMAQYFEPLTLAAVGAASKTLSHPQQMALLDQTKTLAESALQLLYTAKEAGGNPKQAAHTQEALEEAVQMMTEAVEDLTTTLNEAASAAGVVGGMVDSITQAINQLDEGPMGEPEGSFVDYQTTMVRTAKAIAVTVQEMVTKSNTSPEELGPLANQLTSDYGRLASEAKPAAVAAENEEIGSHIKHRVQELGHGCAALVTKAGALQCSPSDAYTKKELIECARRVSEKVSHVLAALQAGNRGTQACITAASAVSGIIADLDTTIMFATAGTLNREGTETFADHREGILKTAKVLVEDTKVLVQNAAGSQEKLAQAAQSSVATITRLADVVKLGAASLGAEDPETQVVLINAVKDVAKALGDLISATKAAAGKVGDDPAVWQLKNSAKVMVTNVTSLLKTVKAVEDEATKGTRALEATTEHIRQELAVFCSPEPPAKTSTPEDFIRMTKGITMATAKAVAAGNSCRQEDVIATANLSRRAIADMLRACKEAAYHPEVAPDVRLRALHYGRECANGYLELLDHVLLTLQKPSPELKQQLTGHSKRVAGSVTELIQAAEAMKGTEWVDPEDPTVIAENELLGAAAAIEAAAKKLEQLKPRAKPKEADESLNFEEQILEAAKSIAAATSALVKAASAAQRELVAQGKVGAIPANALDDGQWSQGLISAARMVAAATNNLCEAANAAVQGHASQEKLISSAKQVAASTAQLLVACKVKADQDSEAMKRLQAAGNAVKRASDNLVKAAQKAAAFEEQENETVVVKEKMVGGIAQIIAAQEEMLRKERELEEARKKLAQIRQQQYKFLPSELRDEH
Procedure: as §1
Talin was purified from human platelets in accordance with well known procedures with an additional purification step using chromatography on phosphocellulose and stored at 1 mg/ml in 10 mM NaCl, 50% glycerol. […]

talin [3] = target: T2, talin; assay: densitometry of Coomassie-stained gels; purified talin on model protein resin
filamin (ABP-280) [4] = target: T1, filamin (ABP-280); assay: densitometry of Coomassie-stained gels; purified filamin on model protein resin
filamin = assay: Affinity chromatography of cell lysates on cytoplasmic domain mimics, filamin (240 kDa) detected; assay type: binding; details: NHS-biotin-labeled human platelet lysates; result in words
From the text: To study possible influences of the structural changes induced by the Gly insertions, protein models were produced having the β1A cytoplasmic domain with one, two and three additional Gly residues inserted after the heptad-repeat motif (G2-, G3-, G4-β1A) and compared with the G1-β1A construct. As an additional control, a variant of the G4-β1A peptide was produced with a Tyr to Ala substitution in the membrane-proximal NPXY-motif (G4-β1A-Y788A) (FIG. 1). This mutation interferes with focal adhesion targeting and activation of integrins. The purified proteins were bound via their N=terminal His-Tag to a Ni^2+−resin and used in affinity chromatography experiments with lysates of NHS-biotin-labeled human platelets. Marked changes in the pattern of protein binding were observed as a consequence of the Gly insertions. Polypeptides migrating at 45, 56, 58, 140 and 240 kDa bound only to the mimics with Gly insertions. […] Using monoclonal antibodies, the 240 kDa and 45 kDa proteins were identified as filamin and actin, respectively. […] Talin bound to the G1- and G4-β1A construct but not to the Y788A-G4β1A construct. Thus, the structural changes in the model induced by the insertion of glycines into the coiled-coil motif and the integrin cytoplasmic domain sequence alter interactions of these proteins with cellular components. […]

talin [5] = target: T2, talin; assay: Affinity chromatography of cell lysates on cytoplasmic domain mimics, talin detected; assay type: binding; set-up: endogenous in cells; host or cells: human platelets (also Jurkat, HT1080, mouse C2C12 myotubes); details: NHS-biotin-labeled human platelet lysates; result in words
From the text: To study possible influences of the structural changes induced by the Gly insertions, protein models were produced having the β1A cytoplasmic domain with one, two and three additional Gly residues inserted after the heptad-repeat motif (G2-, G3-, G4-β1A) and compared with the G1-β1A construct. As an additional control, a variant of the G4-β1A peptide was produced with a Tyr to Ala substitution in the membrane-proximal NPXY-motif (G4-β1A-Y788A) (FIG. 1). This mutation interferes with focal adhesion targeting and activation of integrins. The purified proteins were bound via their N=terminal His-Tag to a Ni^2+−resin and used in affinity chromatography experiments with lysates of NHS-biotin-labeled human platelets. Marked changes in the pattern of protein binding were observed as a consequence of the Gly insertions. Polypeptides migrating at 45, 56, 58, 140 and 240 kDa bound only to the mimics with Gly insertions. […] Using monoclonal antibodies, the 240 kDa and 45 kDa proteins were identified as filamin and actin, respectively. […] Talin bound to the G1- and G4-β1A construct but not to the Y788A-G4β1A construct. Thus, the structural changes in the model induced by the insertion of glycines into the coiled-coil motif and the integrin cytoplasmic domain sequence alter interactions of these proteins with cellular components. Alterations of the β1A tail that block cytoskeletal interactions, such as the Y788 mutation and β1B- and β1C-splice variants also abrogate binding to talin and filamin. Consequently, the observed in vitro interactions are likely to be biologically relevant.
Human platelets were obtained by centrifugation of freshly drawn blood samples at 1000 rpm for 20 minutes and sedimentation of the resulting platelet-rich plasma at 2600 rpm for 15 minutes. They were washed twice with 0.12 M NaCl, 0.0129 M trisodium citrate, 0.03 M glucose, pH 6.5, and once in Hepes-Saline (3.8 mM Hepes, 137 mM NaCl, 2.7 mM KCl, 5.6 mM D-Glucose, 3.3 mM Na2HPO4, pH 7.3-7.4). […]

B1: G4-β1B: G4 model protein with β1B splice variant cytoplasmic domain (protein)
chain: GSSHHHHHHSSGLVPRGSHMKLEALEGRLDALEGKLEALEGKLDALEGGGGKLLMIIHDRREFAKFEKEKMNAKWDTVSYKTSKKQSGL
With B1 the “binding of purified filamin, comparison between constructs” value (shortened to “binding of purified filamin”) (filamin (ABP-280) [1]) was “functionally reduced” and the “binding of purified talin compared to G4-β1A” value (talin [2]) was “functionally reduced”.

B2: β1D construct (G1 or G4 variant not stated) (designed binder, part only; not given: number of added glycines, part only)
chain, part: GSSHHHHHHSSGLVPRGSHMKLEALEGRLDALEGKLEALEGKLDALEGKLLMIIHDRREFAKFEKEKMNAKWDTQENPIYKSPINNFKNPNYGRKAGL
B2 gave a fold more talin bound than by the β1A model protein (talin [3]) of 9 fold.

B3: β7 construct (G1 or G4 variant not stated) (designed binder, part only; not given: number of added glycines, part only)
chain, part: GSSHHHHHHSSGLVPRGSHMKLEALEGRLDALEGKLEALEGKLDALEGKLSVEIYDRREYSRFEKEQQQLNWKQDSNPLYKSAITTTINPRFQEADSPTL
For B3, the fold more filamin bound than by the β1A model protein (filamin (ABP-280) [4]) was 8.4 fold and the “binding of purified filamin” value (filamin (ABP-280) [1]) was “bound more filamin than G4-β1A or G4-β1D”.

B4: G4-β1A-Y788A: G4-β1A variant with Tyr to Ala substitution in the membrane-proximal NPXY-motif (protein)
chain: GSSHHHHHHSSGLVPRGSHMKLEALEGRLDALEGKLEALEGKLDALEGGGGKLLMIIHDRREFAKFEKEKMNAKWDTGENPIAKSAVTTVVNPKYEGK
For B4, the “filamin (240 kDa) binding from cell lysates” value (filamin) was “suppressed the interaction with the 240 kDa”, the “talin binding from cell lysates” value (talin [5]) was “not” and the “binding of purified filamin” value (filamin (ABP-280) [1]) was “functionally reduced”. For the same molecule, the “binding of purified talin compared to G4-β1A” value (talin [2]) was “functionally reduced”.
